Source: paper PMC11251522

Legend:
[1] = tested on: ERα DBD-Ext (human); test: fluorescence anisotropy; details: apparent, FP at 4°C, ERα: 20 mM Tris pH 7.5 (at 25°C), 100 mM NaCl, 5% glycerol, 0.01% IGEPAL, Sox2: 10 mM Tris pH 7.5 (at 25°C), 135 mM KCl, 15 mM NaCl, 0.1 mg/mL BSA …
[2] = biological target: Sox2 HMG (human) (UniProt P48431); test: fluorescence anisotropy; details: FP at 4°C, ERα: 20 mM Tris pH 7.5 (at 25°C), 100 mM NaCl, 5% glycerol, 0.01% IGEPAL, Sox2: 10 mM Tris pH 7.5 (at 25°C), 135 mM KCl, 15 mM NaCl, 0.1 mg/mL BSA …
Sox2 HMG (human), sequence (P48431 40-123): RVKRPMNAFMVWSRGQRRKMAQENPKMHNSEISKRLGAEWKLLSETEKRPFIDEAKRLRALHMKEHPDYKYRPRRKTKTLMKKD

XBP1 hRNA (37 nt)
Kd ([1]; Hill n 0.91): 370 nM

CBS dsDNA (10 bp)
Kd ([2]; printed ≤1, first (high-affinity) transition, 54% of signal): < 1 nM
Kd ([2]; second (low-affinity) transition): 420 nM

hRNA (43 nt)
Kd ([2]; apparent, Hill n 1.1): 53 nM

NBS dsDNA (19 bp)
Kd ([2]; apparent, Hill n 0.57): 29 nM

ΔERE dsDNA (15 bp, half-site)
Kd ([1]; Hill n 1.5, about half the ligand concentration, true Kd may be lower): 2.8 nM

ERE dsDNA (18 bp)
Kd ([1]; Hill n 2.1): 11 nM
